T1: progesterone receptor (UniProt P06401 1-933, limits assumed)
T1 construct: The assay and the construct are not described; also called a related receptor, the progesterone receptor
T1 sequence (looked up): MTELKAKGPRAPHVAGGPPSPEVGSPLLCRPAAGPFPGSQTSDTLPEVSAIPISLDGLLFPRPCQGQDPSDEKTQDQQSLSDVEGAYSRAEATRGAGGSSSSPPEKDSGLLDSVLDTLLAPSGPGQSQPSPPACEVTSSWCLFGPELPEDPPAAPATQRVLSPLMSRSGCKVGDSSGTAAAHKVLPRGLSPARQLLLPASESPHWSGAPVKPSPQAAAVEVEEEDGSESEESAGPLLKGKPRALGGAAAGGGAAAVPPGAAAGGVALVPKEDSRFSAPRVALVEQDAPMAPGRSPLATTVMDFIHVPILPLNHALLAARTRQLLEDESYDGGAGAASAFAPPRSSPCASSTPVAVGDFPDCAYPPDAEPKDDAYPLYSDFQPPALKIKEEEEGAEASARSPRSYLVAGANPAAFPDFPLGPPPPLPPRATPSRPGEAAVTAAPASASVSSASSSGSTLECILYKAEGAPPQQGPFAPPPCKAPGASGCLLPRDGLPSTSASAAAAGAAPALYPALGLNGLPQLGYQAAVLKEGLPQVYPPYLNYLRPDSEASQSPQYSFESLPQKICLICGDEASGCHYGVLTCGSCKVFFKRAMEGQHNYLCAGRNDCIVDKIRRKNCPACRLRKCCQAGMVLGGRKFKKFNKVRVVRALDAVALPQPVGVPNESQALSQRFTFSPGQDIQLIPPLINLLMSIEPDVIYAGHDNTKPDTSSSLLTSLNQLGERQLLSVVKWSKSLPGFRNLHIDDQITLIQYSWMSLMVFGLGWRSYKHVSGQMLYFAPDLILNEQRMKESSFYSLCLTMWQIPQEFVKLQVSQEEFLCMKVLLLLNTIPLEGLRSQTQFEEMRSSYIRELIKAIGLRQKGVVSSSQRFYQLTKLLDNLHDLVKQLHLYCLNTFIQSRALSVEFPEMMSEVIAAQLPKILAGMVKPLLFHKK

T2: full length androgen receptor (human, UniProt P10275 1-920)
T2 construct: Full length AR expressed inside transfected cells (intracellular, not on the surface); also called AR; full length AR
T2 sequence: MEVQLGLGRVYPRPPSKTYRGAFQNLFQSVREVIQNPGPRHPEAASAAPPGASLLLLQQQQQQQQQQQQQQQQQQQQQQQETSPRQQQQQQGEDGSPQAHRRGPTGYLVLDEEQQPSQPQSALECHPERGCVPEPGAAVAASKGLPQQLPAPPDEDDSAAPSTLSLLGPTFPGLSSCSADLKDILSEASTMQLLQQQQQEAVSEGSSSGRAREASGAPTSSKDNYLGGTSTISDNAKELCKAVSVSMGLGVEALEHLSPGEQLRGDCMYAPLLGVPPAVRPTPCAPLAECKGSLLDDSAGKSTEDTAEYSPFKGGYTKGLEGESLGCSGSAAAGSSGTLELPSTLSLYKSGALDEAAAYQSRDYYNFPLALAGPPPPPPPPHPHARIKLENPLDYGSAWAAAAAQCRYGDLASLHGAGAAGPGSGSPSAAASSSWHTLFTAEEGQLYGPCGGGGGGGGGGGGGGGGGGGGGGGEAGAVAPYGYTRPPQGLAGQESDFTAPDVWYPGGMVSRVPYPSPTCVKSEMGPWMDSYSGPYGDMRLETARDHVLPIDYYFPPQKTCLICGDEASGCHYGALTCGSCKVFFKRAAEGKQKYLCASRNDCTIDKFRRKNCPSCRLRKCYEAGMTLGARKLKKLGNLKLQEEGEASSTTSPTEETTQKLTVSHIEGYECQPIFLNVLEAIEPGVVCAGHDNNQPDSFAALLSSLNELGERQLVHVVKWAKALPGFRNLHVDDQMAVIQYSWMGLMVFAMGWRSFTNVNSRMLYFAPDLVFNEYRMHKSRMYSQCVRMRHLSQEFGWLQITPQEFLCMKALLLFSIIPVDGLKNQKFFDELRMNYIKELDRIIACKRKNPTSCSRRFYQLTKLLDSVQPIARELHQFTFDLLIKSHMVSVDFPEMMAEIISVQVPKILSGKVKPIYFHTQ


Experiments:
progesterone receptor = target: T1, progesterone receptor; assay: not described
[1] = target: T2, full length androgen receptor; assay: not described

Binder	binding result (progesterone receptor)	binding result [1]
SRCdp100: Amino acids 1050-1150 of SRC-1 (Expressed in cells from a transfected plasmid; also called SRCdp(P100); SRC derived peptide) peptide: MAPNQLRLQLQQRLQGQQQLIHQNRQAILNQFAATAPVGINMRSGMQQQITPQPPLNAQMLAQRQRELYSQQHRQRQLIQQQRAMLMRQQSFGNNLPPSSGL	no binding	binds
SRCdp200: Amino acids 1050-1240 of SRC-1 (Expressed in cells from a transfected plasmid; also called SRC derived peptide; 200 amino acid fragment) peptide: MAPNQLRLQLQQRLQGQQQLIHQNRQAILNQFAATAPVGINMRSGMQQQITPQPPLNAQMLAQRQRELYSQQHRQRQLIQQQRAMLMRQQSFGNNLPPSSGLPVQMGNPRLPQGAPQQFPYPPNYGTNPGTPPASTSPFSQLAANPEASLANRNSMVSRGMTGNIGGQFGTGINPQMQQNVFQYPGAGMVPQ	no binding	binds
